Assay [1] deals with Fas on TIL1200 cells (human) (UniProt P25445). As to the kind of experiment: cell-based or functional assay.
Assay [2] concerns the target T1, TR2 on the surface of human cells (MDA-MB-231, HT-29, PBL T cells) (human, UniProt Q92956 39-283).
T1 sequence (looked up): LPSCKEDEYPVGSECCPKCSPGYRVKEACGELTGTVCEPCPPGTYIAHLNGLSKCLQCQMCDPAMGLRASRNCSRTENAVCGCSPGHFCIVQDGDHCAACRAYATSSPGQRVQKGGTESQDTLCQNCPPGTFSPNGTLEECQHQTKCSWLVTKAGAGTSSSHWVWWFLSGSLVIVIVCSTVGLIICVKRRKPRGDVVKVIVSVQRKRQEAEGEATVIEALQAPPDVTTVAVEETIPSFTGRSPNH
The assay is described as follows: cell-based or functional assay.

The target in assay [3] is LTβR on the surface of human cancer cells (MDA-MB-231, HT-29) (human, UniProt P36941 31-435). As to the kind of experiment: cell-based or functional assay.
Assay [4] deals with T2, human LTβR-Fc fusion protein (extracellular domain of lymphotoxin-β receptor fused to IgG1 Fc) (human, UniProt P36941 31-227).
T2 construct: extracellular domain; Made in baculovirus-infected Sf21 cells; also called sLTβR-Fc; lymphotoxin-β receptor-Fc fusion protein; not shown: IgG1 Fc from vector pUC19-IgG1-Fc; hybridomas were counter-screened on human IgG1
As to the kind of experiment: BIAcore, LTβR-Fc immobilized, CHO conditioned media. (In SPR one partner is held on a chip, and binding of the other changes the refractive index at the surface.)

Bounds are passed on as bounds.

T2 sequence (P36941 31-227 limits assumed): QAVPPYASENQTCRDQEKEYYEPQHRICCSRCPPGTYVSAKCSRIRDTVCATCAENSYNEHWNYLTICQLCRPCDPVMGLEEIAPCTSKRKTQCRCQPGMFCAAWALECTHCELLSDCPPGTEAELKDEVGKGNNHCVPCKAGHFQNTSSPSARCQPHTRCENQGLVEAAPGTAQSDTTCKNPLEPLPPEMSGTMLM
Fas on TIL1200 cells (human), sequence (P25445 26-335): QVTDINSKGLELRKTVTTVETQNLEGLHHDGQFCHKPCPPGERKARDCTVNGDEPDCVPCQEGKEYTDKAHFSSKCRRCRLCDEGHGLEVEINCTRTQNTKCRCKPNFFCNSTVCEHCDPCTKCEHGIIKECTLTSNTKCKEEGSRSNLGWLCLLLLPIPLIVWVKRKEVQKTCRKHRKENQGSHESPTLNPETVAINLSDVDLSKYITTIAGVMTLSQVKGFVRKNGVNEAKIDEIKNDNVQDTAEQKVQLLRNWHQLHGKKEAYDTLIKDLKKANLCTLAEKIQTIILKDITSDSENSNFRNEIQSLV
LTβR on the surface of human cancer cells (MDA-MB-231, HT-29), sequence (P36941 31-435): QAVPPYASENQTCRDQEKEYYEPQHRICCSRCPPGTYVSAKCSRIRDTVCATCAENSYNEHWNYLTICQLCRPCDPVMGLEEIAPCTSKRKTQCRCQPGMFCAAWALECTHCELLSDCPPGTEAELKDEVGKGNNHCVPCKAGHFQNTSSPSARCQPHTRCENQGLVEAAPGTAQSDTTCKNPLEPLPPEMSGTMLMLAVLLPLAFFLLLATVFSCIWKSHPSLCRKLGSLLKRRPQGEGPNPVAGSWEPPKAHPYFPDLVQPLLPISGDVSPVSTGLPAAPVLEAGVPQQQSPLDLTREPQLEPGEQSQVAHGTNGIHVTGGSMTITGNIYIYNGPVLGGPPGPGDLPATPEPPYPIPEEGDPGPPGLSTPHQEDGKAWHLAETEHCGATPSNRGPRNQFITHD

As for “apoptosis inducing anti-Fas Mab CH-11 (antibody)”, the apoptosis of TIL1200 cells in assay [1] was 90%.

B1: recombinant soluble form of AIM II protein (sAIM II), Flag-tagged, amino acids 74-240 of AIM II (ligand, not shown: small tags and cut ends)
chain: DGPAGSWEQLIQERRSHEVNPAAHLTGANSSLTGSGGPLLWETQLGLAFLRGLSYHDGALVVTKAGYYYIYSKVQLGGVGCPLGLASTITHGLYKRTPRYPEELELLVSQQSPCGRATSSSRVWWDSSFLGGVVHLEAGEEVVVRVLDERLVRLRDGTRSYFGAFMV
Take B1: the “IC50 of cytotoxic effect on HT-29 cells in the presence of 10 u/ml IFNγ” value in assay [2] and in assay [3] was less than 1 ng/mL in each case.

B2: ck-beta8/AIM II fusion protein, extracellular region of AIM II (amino acids 60-240), from CHO 11 conditioned media (ligand)
chain: SQAGSQLHWRLGEMVTRLPDGPAGSWEQLIQERRSHEVNPAAHLTGANSSLTGSGGPLLWETQLGLAFLRGLSYHDGALVVTKAGYYYIYSKVQLGGVGCPLGLASTITHGLYKRTPRYPEELELLVSQQSPCGRATSSSRVWWDSSFLGGVVHLEAGEEVVVRVLDERLVRLRDGTRSYFGAFMV
notes: Two N-termini were found (40% each): SQAGS... and GSQLH; the second species lacks the first three residues SQA; also called CHO-11 AIM II; ck-beta-8-AIM2
B2: the binding result in assay [4] is “binds”.

The record behind these values is patent publication US20020064869A1 (published 2002).
